The values below come from patent US20260355338 (published 2026).

Positions count from the first letter of the chain named.

One experiment concerns the target T1, human EpCAM-mFc (human).
T1 chain: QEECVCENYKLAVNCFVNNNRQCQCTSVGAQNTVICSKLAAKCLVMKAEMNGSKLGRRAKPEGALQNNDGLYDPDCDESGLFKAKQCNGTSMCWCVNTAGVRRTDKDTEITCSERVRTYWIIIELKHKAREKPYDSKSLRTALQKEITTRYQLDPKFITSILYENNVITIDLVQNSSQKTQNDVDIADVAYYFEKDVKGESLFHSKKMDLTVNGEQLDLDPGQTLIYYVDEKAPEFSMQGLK
Nature of the experiment: ELISA. In general terms: An ELISA detects its analyte on a solid surface through an enzyme-linked reagent.

Experiment [1] concerns the target T2, EpCAM on HSC2 cells (human, UniProt P16422).
T2 chain: T1 chain
Nature of the experiment: FACS, HSC2 cells, apparent, high end of range.

Experiment [2] addresses T2, EpCAM on HSC2 cells. Put plainly: FACS, HSC2 cells, apparent, low end of range. In general terms: A flow cytometer gives signals particle by particle.

B1: EP07-3014 (1361-H) (antibody)
chain 1: QVQLVQSGAEVKKPGASVKVSCKASGYTFTNYHIHWVRQAPGQRLEYIGWIYPGNVYIQYNEKFKGRATLTADKSASTAYMELSSLRSEDTAVYYCARDGPWFAYWGQGTLVTVSS
chain 2: QGQSGQGHSGCPRLFDRCSAPAGGGSSGGAVGLLAPPGGLSGRSDNIGGSDIVLTQTPLSLSVTPGQPASISCRSSRSLLHSDGFTYLYWFLQKPGQSPQLLIYQTSNLASGVPDRFSSSGSGTDFTLKISRVEAEDVGVYYCAQNLELPNTFGQGTKLEIK
For B1, in the experiment with human EpCAM-mFc, the Kd amounted to 1.5 nM.

B2: EP107-3014 (1361-H) (antibody)
chain 1: B1 chain 1
chain 2: QGQSGQGSKPCSYMHPYCFYNSGGGSSGGAVGLLAPPGGLSGRSDNIGGSDIVLTQTPLSLSVTPGQPASISCRSSRSLLHSDGFTYLYWFLQKPGQSPQLLIYQTSNLASGVPDRFSSSGSGTDFTLKISRVEAEDVGVYYCAQNLELPNTFGQGTKLEIK
On to B2, for which the Kd with human EpCAM-mFc came to 147 nM.

B3: EP07-3014 (1565-Y) (antibody)
chain 1: B1 chain 1 with H33Y, P101Y
chain 2: B1 chain 2
As for B3, the Kd with human EpCAM-mFc amounted to 37.6 nM.

B4: EP04-3014 (1361-H) (antibody)
chain 1: B1 chain 1
chain 2: QGQSGQGWCPRLFDRPSMGCPTGGGSSGGAVGLLAPPGGLSGRSDNIGGSDIVLTQTPLSLSVTPGQPASISCRSSRSLLHSDGFTYLYWFLQKPGQSPQLLIYQTSNLASGVPDRFSSSGSGTDFTLKISRVEAEDVGVYYCAQNLELPNTFGQGTKLEIK
On to B4, for which the Kd with human EpCAM-mFc was found to be 1.9 nM.

B5: muEpCAM23 (antibody, V domains shown)
VH: EVKLEESGPALVKPGASVRISCKASGYTFTNYYIHWVKQRPGQGLDYIGWIYPGNVYIQYNEKFKGKATLTADKSSSTAFMQLSSLTSEDSAVYFCARDGPWFAYWGQGTLVTVSS
VL: DIVLTQTPFSNPVTLGTSASISCRSSKSLLHSDGFTYLYWFLQKPGQSPHLLIYQTSNLASGVPDRFSSSGSGTDFTLRISRVEAEDVGVYYCAQNLELPNTFGGGTKLEIK
With B5, the Kd in the experiment with EpCAM on HSC2 cells [1] was determined as 0.79 nM; in the experiment with EpCAM on HSC2 cells [2] it was 0.38 nM.
